Among the data in the supplement of paper PMC10126150 are switch fluorescence ratio values, retold here.

± gives the standard deviation of the averaged measurements.

The data set relates to ATP. Put plainly: switch fluorescence ratio, 500 uM ATP over buffer (Cy3 cluster intensity, sum of 5 cycles each) (fold (ratio)); higher = stronger signal-on switching upon ATP binding; sequences stand for … in TCGTCGGCAGCGTCAGATGTGTATAAGAGACAGTTTTTTTTTTTTTTTTTTTTTTTTT…TC. The following applies: aptamer strand: ATP DNA aptamer (quencher-CACCTGGGGGAGTATTGCGGAGGAAGG + anchor), 100 nM annealed; ATP concentration: 500 uM. Put shortly: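 Clusters carrying Cy3-labelled switching strands on a modified Illumina MiSeq flow-cell were annealed to 100 nM quencher-labelled ATP aptamer and imaged in selection buffer. They were imaged again after 15 min with 500 uM ATP at 22 °C, over five buffer/ATP cycles with NaOH stripping and re-annealing in between. For each cluster, the fluorescence ratio is the summed Cy3 intensity of the target cycles divided by that of the buffer cycles, averaged per switch-domain sequence. Clusters outside 100-1000 RFU were left out.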
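Further: ATP exposure 15 min at 22 °C before imaging.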

Turning to AGATAGATCT, the switch fluorescence ratio stood at 0.9871 ± 0.0059.
With AGATATCAAC, the switch fluorescence ratio is 1.04 ± 0.021.
Consider AGATATCATT, for which the switch fluorescence ratio was 0.9848 ± 0.0086.
Next, AGATATCCGC: 1.15 ± 0.05; AGATATGAGA: 1.031 ± 0.0075; AGATATGTTT: 0.986 ± 0.025.
Next, AGATATTTTT: 0.975 ± 0.023; AGATCAAGGT: 1.02 ± 0.013; AGATCATGAG: 0.9708 ± 0.0079.
The result for AGATCGAAGG reads 1.03 ± 0.018.
AGATCGACGG: the switch fluorescence ratio came to 1.014 ± 0.0095.
The result for AGATCGGGTG reads 1 ± 0.021; that for AGATGGCCGG, 1 ± 0.065; that for AGATGGGGCC, 1 ± 0.027.
As to AGATGGGGTA, the switch fluorescence ratio was found to be 0.9705 ± 0.0077.
For AGATGGGGTG, the switch fluorescence ratio came to 1.23 ± 0.35.
The result for AGATGGGGTT reads 1.01 ± 0.028; that for AGATGGTCAC, 1.032 ± 0.0086.
For the sequence AGATGTGCCT, the switch fluorescence ratio came out at 1.01 ± 0.045.
Take AGATGTTAGC: the switch fluorescence ratio came out at 0.983 ± 0.047.
Next, AGATGTTAGG: 0.981 ± 0.029; AGATTGAGAA: 0.998 ± 0.028; AGATTGATGG: 0.9848 ± 0.0026.
The result for AGATTGGAGA reads 1 ± 0.039.
Regarding AGATTGGGGC, the switch fluorescence ratio stood at 0.974 ± 0.013.
The result for AGATTGGTTG reads 0.985 ± 0.012; that for AGATTTATGT, 1.01 ± 0.047.
The result for AGATTTTTCA reads 1 ± 0.021; that for AGATTTTTCG, 1.04 ± 0.024; that for AGATTTTTTT, 0.996 ± 0.031.
Next, AGCAAAAGGA: 1.16 ± 0.22; AGCAACCGGT: 1.1 ± 0.016; AGCAATATGG: 2.49 ± 0.051.
For AGCACATGTC, the switch fluorescence ratio is 1.07 ± 0.027.
Next, AGCAGAAATG: 0.9979 ± 0.0074; AGCAGAGTGC: 1.02 ± 0.055; AGCAGATAGG: 1.03 ± 0.079.
Turning to AGCAGGCCGG, the switch fluorescence ratio was 0.976 ± 0.025.
Next, AGCAGGGAGC: 1.01 ± 0.021; AGCAGTGTCT: 1.04 ± 0.02.
The result for AGCATAGAGG reads 1.03 ± 0.03.
Next, AGCATATATG: 1.02 ± 0.015; AGCATGAGAT: 1.03 ± 0.039; AGCATTGAGG: 0.984 ± 0.0067.
For AGCATTGTTT, the switch fluorescence ratio is 0.985 ± 0.023.
The result for AGCCAGAGGG reads 1.005 ± 0.0055; that for AGCCATAAGG, 1.012 ± 0.0061.
The result for AGCCATAGTC reads 1.113 ± 0.0056.
Next, AGCCATTAGC: 0.992 ± 0.048; AGCCCGCCGG: 1.03 ± 0.031.
As for AGCCGGACGC, the switch fluorescence ratio was found to be 1.066 ± 0.0075.
The result for AGCCGGCCTG reads 1.02 ± 0.017; that for AGCCGTTTTT, 0.973 ± 0.038.
Consider AGCCTAATGG, for which the switch fluorescence ratio amounted to 0.995 ± 0.041.
Next, AGCCTAGTTC: 1.01 ± 0.026; AGCCTATACT: 1.6 ± 0.16; AGCCTCGGTT: 1.0014 ± 0.00098.
The result for AGCCTTTTTC reads 1.08 ± 0.091; that for AGCGAAAAGG, 1 ± 0.041.
With AGCGACGGAC, the switch fluorescence ratio was 1.42 ± 0.1.
The result for AGCGACTGTA reads 1.15 ± 0.22.
As to AGCGAGACGT, the switch fluorescence ratio is 1.12 ± 0.034.
AGCGAGGGGC: the switch fluorescence ratio came to 1.02 ± 0.035.
Next, AGCGATTGCC: 1.01 ± 0.016.
The result for AGCGCCAACA reads 1.02 ± 0.017.
The result for AGCGCCGCGT reads 1.09 ± 0.13; that for AGCGCCTCAG, 1.003 ± 0.0081.
Consider AGCGCGGCGC, for which the switch fluorescence ratio was found to be 1.01 ± 0.051.
As for AGCGCTATTT, the switch fluorescence ratio turned out to be 1.04 ± 0.065.
The result for AGCGGAGTGA reads 1.007 ± 0.0093; that for AGCGGGGCGT, 1.01 ± 0.014.
The result for AGCGGGGTCG reads 1 ± 0.011; that for AGCGGTGGTT, 1.02 ± 0.012.
AGCGGTTCAC: the switch fluorescence ratio stood at 1.018 ± 0.0029.
Next, AGCGGTTGGG: 0.9966 ± 0.0071.
The result for AGCGGTTTCG reads 0.986 ± 0.023; that for AGCGTACTTT, 1.12 ± 0.018.
Next, AGCGTCAACG: 0.954 ± 0.015; AGCGTCTGGG: 1.0291 ± 0.00058.
As for AGCGTGTGCG, the switch fluorescence ratio came to 0.989 ± 0.055.
As for AGCTAGAGCT, the switch fluorescence ratio was found to be 0.963 ± 0.033.
As for AGCTAGGAGC, the switch fluorescence ratio was determined as 0.972 ± 0.021.
Next, AGCTAGGCGC: 1.01 ± 0.027; AGCTAGTTTA: 0.998 ± 0.0036; AGCTATAAGG: 0.982 ± 0.021.
The result for AGCTATCACG reads 1 ± 0.032; that for AGCTCTAAAT, 1.04 ± 0.068; that for AGCTGACCGA, 1.083 ± 0.0037.
Next, AGCTGAGGAG: 1.0063 ± 7.3e-05; AGCTGATCTA: 0.986 ± 0.022; AGCTGCCCCA: 1.18 ± 0.13.
With AGCTGGAGGT, the switch fluorescence ratio was determined as 0.992 ± 0.026.
The result for AGCTGGGCCT reads 1.04 ± 0.011; that for AGCTGGGGTT, 0.9962 ± 0.0062.
The result for AGCTGTACGG reads 1.029 ± 0.0084; that for AGCTGTTTAC, 1.09 ± 0.016; that for AGCTTAGGGC, 0.989 ± 0.03.
Next, AGCTTAGGGG: 1.07 ± 0.11.
AGCTTCGTCT: the switch fluorescence ratio is 1.04 ± 0.065.
The result for AGCTTCTAAC reads 1.025 ± 0.0036; that for AGCTTGATTT, 1.01 ± 0.039; that for AGCTTGGACC, 1.009 ± 0.0084.
The result for AGCTTGGGGG reads 0.995 ± 0.027; that for AGCTTTTTGT, 0.947 ± 0.023; that for AGGAAAAGGG, 1.14 ± 0.1.
Next, AGGAAAATGT: 0.984 ± 0.041; AGGAAAGTCT: 1.02 ± 0.066; AGGAAATGTT: 1 ± 0.051.
For AGGAAATTTT, the switch fluorescence ratio stood at 1.01 ± 0.025.
Take AGGAACGTAC: the switch fluorescence ratio is 1.61 ± 0.057.
The result for AGGAACTTTT reads 1.42 ± 0.56.
The result for AGGAAGAGAG reads 1.016 ± 0.0083.
The result for AGGAAGATCC reads 1.002 ± 0.0083; that for AGGAAGGGGG, 0.992 ± 0.034.
Turning to AGGAAGTGCC, the switch fluorescence ratio came to 1.032 ± 0.0062.
Next, AGGAAGTGGT: 0.9671 ± 0.006; AGGAAGTGTG: 0.9869 ± 0.0079.
Next, AGGAATAAGT: 1.11 ± 0.16; AGGAATCTAG: 0.967 ± 0.03.
Next, AGGAATGGGA: 1.02 ± 0.02.
